# Laboratory results reported in patent US20230227514A1, “BETA-ARRESTIN COMPOSITIONS AND ASSOCIATED METHODS” (Duke University, priority 2020, published 2023).
# What was measured:
# [1] = target: T1, D2 dopamine receptor (D2R) (Homo sapiens, UniProt P14416); experiment: Co-immunoprecipitation of βarrestin2 constructs with HA-D2R; format: binding; details: HEK-293 cells stably expressing HA-D2R, co-IP
# T1 construct: expressed in transfected cells
# Experimental: (§1) Cross-linking, Immunoprecipitation and Immunoblotting. […] Twenty-four hours post-transfection, cells were starved in PBS containing 10 mM HEPES (pH 7.4) for 1 h and stimulated with vehicle or agonist (isoproterenol, 1 μM; or AVP 1 μM, or Dopamine 1 μM) at 37° C. for desired times. After stimulations, β2AR stable cells were treated with the crosslinker DSP to a final concentration of […], and plates were rocked for 20 min at room temperature. Reaction was quenched by adding 25 μl of 1M Tris-Cl pH 8.5 per 1 mL volume of buffer in the dish and rocked for additional 5 min at room temperature.
# (§2) Harvested cells were washed with ice-cold PBS (pH 7.4) and solubilized in an ice-cold lysis buffer (50 mM HEPES (pH 7.5), 2 mM EDTA, 250 mM NaCl, 10% (v/v) glycerol, and 0.5% (v/v) IGEPAL CA-630) that was supplemented with phosphatase and protease inhibitors (1 mM sodium orthovanadate, 1 mM sodium fluoride, 1 mM phenylmethylsulfonyl fluoride, 5 μg/ml leupeptin, 5 μg/ml aprotinin, 1 μg/ml pepstatin A, and 100 μM benzamidine). […] Cell lysate protein concentrations were determined by Bradford protein assay and equivalent μg of proteins were immunoprecipitated using anti-FLAG M2 antibody resin (for FIG. 2) or Anti-HA magnetic beads from Thermo Pierce (for FIG. 5, FIG. 7, and FIG. 8). […] HA-D2R or HA-V2R were detected using an anti-HA IgG (Cell Signaling Technologies). […]
# [2] = target: T2, β2AR (Homo sapiens, UniProt P07550); experiment: Confocal trafficking and colocalization with β2AR; format: cell-based; details: HEK-293 cells with stable β2AR expression; agonist up to 20 minutes
# T2 construct: Flag (N); expressed in transfected cells
# Experimental: (§3) Immunostaining and confocal microscopy. […] Twenty-four hours post-transfection, cells were serum-starved for 4 h, and either left untreated or treated with respective agonists for the indicated times in the Figure descriptions. After stimulation, cells were fixed with 5% formaldehyde diluted in phosphate-buffered saline (PBS), permeabilized with 0.1% Triton in PBS containing 2% bovine serum albumin for 20 min and incubated at room temperature with appropriate primary antibody. The next day, cells were washed three times with PBS and incubated with Alexa594 conjugated secondary antibody for 1 h, followed by repeated washes using PBS. Confocal images were acquired using Zeiss LSM510 laser-scanning microscope using multitrack sequential with excitation (488 and 568 nm) and emission (BP 505-550 nm and LP 585 nm) filter sets. Images (1024×1024 pixels) were collected using either a 63× or 100× oil immersion lens. Images were processed for Figure presentation using Adobe Photoshop software, and any increase or decrease of brightness/contrast was applied to the entire image. The nuclear rim localization of YFP-βarrestin2-SUMO1 is readily visualized in cells with low to moderate expression of YFP-protein. In cells with high expression, this localization is present, and can be discerned by enlarging sections of the nuclear rim.
# For βarrestin2-SUMO1, plasma membrane translocation was detected upon β2AR agonist activation, and, intriguingly, βarrestin2-SUMO1 was detected in endocytic vesicles. […] Confocal images were taken of cells stably expressing the β2AR and transiently expressing YFP-SUMO1 (data not shown). In both quiescent and agonist-treated cells, the SUMO1 protein remained in the nucleus. […] See Shenoy et al. 2007, supra; Shenoy and Lefkowitz. 2005. J Biol Chem 280:15315-15324; and Shenoy and Lefkowitz. 2003. J Biol Chem 278:14498-14506. Therefore, the endosomal trafficking was compared for βarrestin2-ubiquitin (βarrestin2-Ub) fusion protein and internalized β2ARs. […]
# [3] = target: T2, β2AR; experiment: Chemical cross-linking and co-immunoprecipitation of βarrestin2 constructs with Flag-β2AR; format: binding; details: HEK-293 cells stably expressing FLAG-β2AR; 5 minutes of 1 μM isoproterenol; DSP cross-linking, co-IP, Western blot
# Experimental: as §1, §2
# [4] = target: T3, RanGAP1 (Homo sapiens, UniProt P46060); experiment: Confocal colocalization with endogenous RanGAP1 at the nuclear envelope; format: cell-based; details: HEK-293 cells with or without β2AR agonist stimulation
# T3 construct: endogenous in cells; host or cells: HEK-293T / HEK-293
# T3 sequence (P46060 2-587 limits assumed): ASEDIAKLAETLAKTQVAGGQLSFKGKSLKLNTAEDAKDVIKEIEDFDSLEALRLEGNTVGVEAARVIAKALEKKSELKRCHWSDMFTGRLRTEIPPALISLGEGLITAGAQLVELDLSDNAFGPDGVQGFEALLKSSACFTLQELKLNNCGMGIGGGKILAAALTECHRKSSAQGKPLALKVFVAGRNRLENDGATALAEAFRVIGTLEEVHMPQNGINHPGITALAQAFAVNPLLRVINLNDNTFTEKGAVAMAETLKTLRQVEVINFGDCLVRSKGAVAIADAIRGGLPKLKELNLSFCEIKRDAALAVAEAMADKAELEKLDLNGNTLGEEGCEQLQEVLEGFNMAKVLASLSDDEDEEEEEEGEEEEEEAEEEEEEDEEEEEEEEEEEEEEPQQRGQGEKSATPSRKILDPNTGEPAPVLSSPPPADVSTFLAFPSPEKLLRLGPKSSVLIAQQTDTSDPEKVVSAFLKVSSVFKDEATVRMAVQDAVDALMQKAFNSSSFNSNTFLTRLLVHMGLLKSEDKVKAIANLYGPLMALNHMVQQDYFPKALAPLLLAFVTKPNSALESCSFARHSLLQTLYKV
# T3 sequence (P63165 2-97 partner limits assumed): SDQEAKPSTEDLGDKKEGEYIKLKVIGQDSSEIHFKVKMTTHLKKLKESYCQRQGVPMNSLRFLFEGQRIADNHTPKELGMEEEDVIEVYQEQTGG
# Experimental: as §3, with “rim. […]” for “rim.”
# T1 sequence (P14416 whole entry): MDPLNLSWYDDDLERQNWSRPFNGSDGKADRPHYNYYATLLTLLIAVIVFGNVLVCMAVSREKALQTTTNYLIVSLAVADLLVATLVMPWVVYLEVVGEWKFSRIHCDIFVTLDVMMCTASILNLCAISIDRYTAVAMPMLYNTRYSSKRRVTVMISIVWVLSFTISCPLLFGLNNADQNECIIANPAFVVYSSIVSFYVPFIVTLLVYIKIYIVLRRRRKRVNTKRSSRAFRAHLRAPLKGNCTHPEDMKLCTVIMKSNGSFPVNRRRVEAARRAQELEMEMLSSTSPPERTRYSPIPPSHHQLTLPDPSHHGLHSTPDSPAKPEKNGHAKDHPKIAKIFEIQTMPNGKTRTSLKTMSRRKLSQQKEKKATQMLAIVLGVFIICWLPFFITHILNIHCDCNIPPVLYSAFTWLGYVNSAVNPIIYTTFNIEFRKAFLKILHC
substance,measurement,setting,value
βarrestin2-SUMO1: rat βarrestin2 polypeptide fused to human SUMO1 (SEQ ID NO:1); used YFP- or Flag-tagged,binding to activated D2R relative to wild-type βarrestin2,"[1]; 20 minutes of 1 μM dopamine, Western blot",3-4 fold
same,D2R-binding affinity versus βarrestin2,[1]; five minutes of 1 μM dopamine,no significant difference
same,colocalization / complexes with β2AR after agonist activation (confocal),[2],persisted with longer agonist activation
same,binding to activated β2AR relative to WT βarrestin2,[3],2-3 fold
same,colocalization with endogenous RanGAP1 at the nuclear envelope,[4],dramatic increase in colocalization
